Source: the supplement of paper PMC10126150
± gives the standard deviation of the averaged measurements.

tested on: ATP; assay: switch fluorescence ratio, 500 uM ATP over buffer (Cy3 cluster intensity, sum of 5 cycles each) (fold (ratio)); higher = stronger signal-on switching upon ATP binding; sequences stand for … in TCGTCGGCAGCGTCAGATGTGTATAAGAGACAGTTTTTTTTTTTTTTTTTTTTTTTTT…TC; details: aptamer strand: ATP DNA aptamer (quencher-CACCTGGGGGAGTATTGCGGAGGAAGG + anchor), 100 nM annealed; ATP concentration: 500 uM
Method in brief: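 Cy3-labelled switching-strand clusters on a modified Illumina MiSeq flow-cell were annealed to 100 nM quencher-labelled ATP aptamer and imaged first in selection buffer, then after 15 min with 500 uM ATP at 22 °C. NaOH stripping and re-annealing separated each of five buffer/ATP cycles, and clusters outside 100-1000 RFU were excluded. The fluorescence ratio sums target-cycle Cy3 intensity over buffer-cycle Cy3 intensity per cluster and averages it per switch-domain sequence.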
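Also: ATP exposure 15 min at 22 °C before imaging.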

Row | Sequence | switch fluorescence ratio
1 | AGAGAGAGTT | 0.974 ± 0.032
2 | AGAGAGGAGG | 0.997 ± 0.066
3 | AGAGAGGCTA | 1 ± 0.015
4 | AGAGAGGTCA | 0.997 ± 0.042
5 | AGAGAGTAGA | 1.02 ± 0.021
6 | AGAGAGTTTA | 1.04 ± 0.021
7 | AGAGATACTT | 1.01 ± 0.035
8 | AGAGATTGCC | 1.0678 ± 0.0008
9 | AGAGATTTAT | 0.988 ± 0.019
10 | AGAGCATACT | 2.12 ± 0.22
11 | AGAGCATAGG | 1.03 ± 0.048
12 | AGAGCCCTTA | 1.01 ± 0.014
13 | AGAGCCGCTG | 1.02 ± 0.068
14 | AGAGCCGGGG | 0.9777 ± 0.003
15 | AGAGCCGGTG | 1 ± 0.041
16 | AGAGCGAGGA | 0.986 ± 0.027
17 | AGAGCGGTTG | 0.969 ± 0.037
18 | AGAGCGTTAG | 1.02 ± 0.051
19 | AGAGCTATAA | 1.254 ± 0.0015
20 | AGAGCTGCCT | 1.06 ± 0.042
21 | AGAGGAGTTA | 0.985 ± 0.011
22 | AGAGGATGTA | 1 ± 0.056
23 | AGAGGATTTG | 1.02 ± 0.022
24 | AGAGGCAGCT | 1.03 ± 0.046
25 | AGAGGCCATC | 0.9831 ± 0.0098

Row | Sequence | switch fluorescence ratio
26 | AGAGGCTAGG | 1.01 ± 0.032
27 | AGAGGCTGAA | 1 ± 0.012
28 | AGAGGCTGAT | 0.983 ± 0.014
29 | AGAGGCTGGT | 0.992 ± 0.017
30 | AGAGGCTGTT | 1.03 ± 0.041
31 | AGAGGGAGGA | 1.017 ± 0.0086
32 | AGAGGGATCT | 1.022 ± 0.0072
33 | AGAGGGGAGG | 0.988 ± 0.0054
34 | AGAGGGGGG | 0.99 ± 0.017
35 | AGAGGGGGGT | 0.99 ± 0.022
36 | AGAGGGGGTA | 0.997 ± 0.022
37 | AGAGGGGTTC | 1.01 ± 0.029
38 | AGAGGTAAT | 1.09 ± 0.12
39 | AGAGGTGTCT | 1 ± 0.049
40 | AGAGGTTCC | 1 ± 0.058
41 | AGAGTAAAGC | 0.996 ± 0.02
42 | AGAGTAGAGG | 1.01 ± 0.028
43 | AGAGTATTTA | 0.991 ± 0.011
44 | AGAGTCAAGT | 0.969 ± 0.017
45 | AGAGTCCGCT | 1.18 ± 0.084
46 | AGAGTCGAGG | 0.968 ± 0.047
47 | AGAGTGCGTA | 0.989 ± 0.023
48 | AGAGTGGAGG | 1 ± 0.041
49 | AGAGTGGGGC | 0.9817 ± 0.0089
50 | AGAGTGGTA | 0.9491 ± 0.0052

Row | Sequence | switch fluorescence ratio
51 | AGAGTTATGT | 1.019 ± 0.0068
52 | AGAGTTGTTT | 0.997 ± 0.015
53 | AGAGTTTTGG | 0.979 ± 0.025
54 | AGATAAACG | 0.984 ± 0.056
55 | AGATAAAGGG | 1.03 ± 0.017
56 | AGATAACTTT | 1.02 ± 0.013
57 | AGATACGGTG | 0.983 ± 0.044
58 | AGATAGAGTG | 0.996 ± 0.02
59 | AGATAGGGGA | 1.01 ± 0.025
60 | AGATAGGGGT | 1.021 ± 0.008
61 | AGATAGGTGT | 1.079 ± 0.003
62 | AGATATGGCT | 0.979 ± 0.038
63 | AGATATTACG | 1.03 ± 0.037
64 | AGATATTATT | 0.9771 ± 0.0015
65 | AGATCCCGCG | 1.03 ± 0.032
66 | AGATCTGGAG | 0.9982 ± 0.0069
67 | AGATGAGATA | 1.005 ± 0.0037
68 | AGATGAGGCG | 1 ± 0.068
69 | AGATGCAGTA | 1.01 ± 0.028
70 | AGATGGGAAT | 1.04 ± 0.0028
71 | AGATGGGTGG | 1.01 ± 0.025
72 | AGATGGGTGT | 1.04 ± 0.041
73 | AGATGGGTTT | 1.01 ± 0.044
74 | AGATGTGGGA | 1 ± 0.013
75 | AGATGTGTGG | 0.989 ± 0.053

Row | Sequence | switch fluorescence ratio
76 | AGATTAGTAT | 1.02 ± 0.056
77 | AGATTATGTT | 1.01 ± 0.029
78 | AGATTCACTT | 1.01 ± 0.013
79 | AGATTCAGAA | 0.947 ± 0.037
80 | AGATTCCGCT | 1.108 ± 0.011
81 | AGATTCGGTC | 1 ± 0.018
82 | AGATTGGAGG | 0.957 ± 0.028
83 | AGATTTAGGG | 0.986 ± 0.017
84 | AGATTTATCG | 0.9781 ± 0.0027
85 | AGATTTCATA | 0.985 ± 0.02
86 | AGATTTGGGC | 1.02 ± 0.031
87 | AGATTTTTTG | 0.9926 ± 0.0073
88 | AGCAACATTG | 1.01 ± 0.06
89 | AGCAAGGGGA | 1.07 ± 0.058
90 | AGCAATTGCT | 1.05 ± 0.023
91 | AGCACGCTGG | 1.029 ± 0.0042
92 | AGCACGTTCT | 0.993 ± 0.1
93 | AGCACTTTTC | 1.0192 ± 0.00082
94 | AGCAGAAATC | 1.07 ± 0.039
95 | AGCAGACGGC | 1.03 ± 0.024
96 | AGCAGGGGTG | 1.09 ± 0.013
97 | AGCAGTGACT | 1.13 ± 0.036
98 | AGCAGTGTGC | 0.9981 ± 0.0027
99 | AGCATACGTT | 1.16 ± 0.051
100 | AGCATATCGT | 1.04 ± 0.033

Row | Sequence | switch fluorescence ratio
101 | AGCATATGAA | 1.02 ± 0.071
102 | AGCATGGTTT | 1.02 ± 0.029
103 | AGCATGTGGC | 0.991 ± 0.016
104 | AGCATTACCG | 1.165 ± 0.0045
105 | AGCATTATCT | 1.09 ± 0.03
106 | AGCATTTATA | 0.981 ± 0.016
107 | AGCATTTTTG | 1.024 ± 0.0035
108 | AGCCAGAGAC | 1.07 ± 0.036
109 | AGCCAGATTC | 0.975 ± 0.036
110 | AGCCAGGATT | 0.9722 ± 0.0083
111 | AGCCATTATT | 0.976 ± 0.02
112 | AGCCCCGGCT | 0.967 ± 0.045
113 | AGCCCGAGGG | 0.989 ± 0.065
114 | AGCCCGTTTG | 0.964 ± 0.053
115 | AGCCGCCGGG | 1.04 ± 0.013
116 | AGCCGTGATG | 1.06 ± 0.048
117 | AGCCTTAATT | 1 ± 0.025
118 | AGCCTTACGT | 1.115 ± 0.0039
119 | AGCCTTTACA | 0.994 ± 0.011
120 | AGCGAATTTT | 0.999 ± 0.017
121 | AGCGAGGGGA | 1.04 ± 0.02
122 | AGCGAGTGGC | 0.991 ± 0.03
123 | AGCGATAGTA | 1.07 ± 0.019
124 | AGCGATGCGG | 0.9867 ± 0.0023
125 | AGCGATTATA | 0.991 ± 0.0037

Row | Sequence | switch fluorescence ratio
126 | AGCGATTTTT | 1.01 ± 0.053
127 | AGCGCAATGA | 3 ± 0.32
128 | AGCGCATGTG | 0.996 ± 0.013
129 | AGCGGAACCC | 1.03 ± 0.023
130 | AGCGGATTGT | 1 ± 0.02
131 | AGCGGCATGT | 0.978 ± 0.077
132 | AGCGGCCTG | 1.01 ± 0.056
133 | AGCGGGGGAT | 1.01 ± 0.027
134 | AGCGGGGGGT | 1.03 ± 0.033
135 | AGCGGGGGTA | 1.01 ± 0.034
136 | AGCGGGGTTC | 1.023 ± 0.0049
137 | AGCGGGTAGA | 0.986 ± 0.02
138 | AGCGGGTTAC | 1.09 ± 0.06
139 | AGCGGGTTCG | 1 ± 0.054
140 | AGCGGTATGC | 0.9804 ± 0.0073
141 | AGCGGTTATT | 1.004 ± 0.0044
142 | AGCGGTTTTC | 0.994 ± 0.033
143 | AGCGTAGAGC | 1.03 ± 0.04
144 | AGCGTCATGC | 1.04 ± 0.048
145 | AGCGTCGTTC | 1.03 ± 0.023
146 | AGCGTTTCCG | 0.99 ± 0.028
147 | AGCGTTTCGC | 0.996 ± 0.013
148 | AGCTACGTCG | 0.942 ± 0.034
149 | AGCTACGTTT | 0.9963 ± 0.0053
150 | AGCTAGCGAT | 1.02 ± 0.034

Row | Sequence | switch fluorescence ratio
151 | AGCTAGTCGC | 1.01 ± 0.027
152 | AGCTATTAAG | 0.9947 ± 0.0065
153 | AGCTGAAGTT | 0.989 ± 0.036
154 | AGCTGACGCT | 1.02 ± 0.025
155 | AGCTGACTGC | 1.01 ± 0.025
156 | AGCTGATTGC | 1 ± 0.02
157 | AGCTGCGACG | 0.992 ± 0.044
158 | AGCTGGGAAG | 0.982 ± 0.021
159 | AGCTGGGGGA | 1.05 ± 0.015
160 | AGCTGGTGGC | 1.01 ± 0.078
161 | AGCTGTGACC | 1 ± 0.012
162 | AGCTGTTTC | 1 ± 0.018
163 | AGCTTAAATT | 0.987 ± 0.018
164 | AGCTTAGTTT | 0.975 ± 0.028
165 | AGCTTCAAAT | 1 ± 0.017
166 | AGCTTCATTC | 1.06 ± 0.057
167 | AGCTTCTAAA | 0.976 ± 0.022
168 | AGCTTGGATA | 1.017 ± 0.01
169 | AGCTTTATGT | 1.02 ± 0.04
170 | AGCTTTTTGA | 0.966 ± 0.025
171 | AGGAAAAAGC | 1.02 ± 0.028
172 | AGGAAACGGG | 0.978 ± 0.018
173 | AGGAAATTAT | 1.01 ± 0.029
174 | AGGAACGGGT | 0.9838 ± 0.0027
175 | AGGAAGAAAG | 1.042 ± 0.0089

Row | Sequence | switch fluorescence ratio
176 | AGGAAGTCTG | 1.03 ± 0.035
177 | AGGAAGTGGG | 0.959 ± 0.028
178 | AGGAATAGCG | 1.021 ± 0.0061
179 | AGGAATCCGG | 1.03 ± 0.026
180 | AGGAATGGTC | 1.02 ± 0.051
181 | AGGAATGTTT | 0.985 ± 0.0099
182 | AGGAATTACG | 1.05 ± 0.041
183 | AGGAATTGAA | 0.982 ± 0.028
184 | AGGACCATGT | 1.01 ± 0.02
185 | AGGACGGGA | 1.03 ± 0.035
186 | AGGACGGGAT | 1.06 ± 0.056
187 | AGGACGTCCA | 0.989 ± 0.02
188 | AGGACTGGGG | 1.01 ± 0.037
189 | AGGACTGTGT | 1.02 ± 0.04
190 | AGGACTTGTC | 0.951 ± 0.01
191 | AGGAGAGACC | 0.9848 ± 0.0029
192 | AGGAGCGGTA | 1.1 ± 0.12
193 | AGGAGCGGTT | 1.02 ± 0.061
194 | AGGAGCTTGA | 1.03 ± 0.018
195 | AGGAGGAGGA | 1.07 ± 0.065
196 | AGGAGGAGGC | 0.789 ± 0.23
197 | AGGAGGCGAG | 0.9905 ± 0.0088
198 | AGGAGGGATG | 0.985 ± 0.022
199 | AGGAGGGGGG | 1.01 ± 0.039
200 | AGGAGGGGGT | 0.991 ± 0.033
